These results are taken from patent publication US20190119345A1 (published 2019).

This assay deals with T1, murine NKG2D on NK cells / splenocytes (mouse, UniProt O54709 1-232).
T1 construct: whole, on cells; also called NKG2D receptor
T1 sequence: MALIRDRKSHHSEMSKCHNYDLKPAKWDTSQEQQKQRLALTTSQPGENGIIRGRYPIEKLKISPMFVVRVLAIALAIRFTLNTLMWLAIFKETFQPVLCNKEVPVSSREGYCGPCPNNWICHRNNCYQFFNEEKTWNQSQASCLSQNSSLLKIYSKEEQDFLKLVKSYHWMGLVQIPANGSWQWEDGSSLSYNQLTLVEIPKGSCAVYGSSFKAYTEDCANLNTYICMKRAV
Nature of the assay: flow cytometry, fluorescently labeled construct on bulk splenocytes at 37° C. (In general: In flow cytometry, cells or beads pass a laser one at a time.)

B1: OMCP-mutIL2 (R38A, F42K, C125S IL2-OMCP construct) (other)
chain: HKLAFNFNLEINGSDTHSTVDVYLDDSQIITFDGKDIRPTIPFMIGDEIFLPFYKNVFSEFFSLFRRVPTSTPYEDLTYFYECDYTDNKSTFDQFYLYNGEEYTVKTQEATNKNMWLTTSEFRLKKWFDGEDCIMHLRSLVRKMEDSKRNTGGTGSSGSSDYKDDDDKHHHHHHHHGSSGSSAPTSSSTKKTQLQLEHLLLDLQMILNGINNYKNPKLTAMLTKKFYMPKKATELKHLQCLEEELKPLEEVLNLAQSKNFHLRPRDLISNINVIVLELKGSETTFMCEYADETATIVEFLNRWITFSQSIISTLT
notes: also called OMCP-mutant IL2; OMCP-IL2 construct
As for B1, the binding result was “binds”.
